The series in a line: soluble on expression in E. coli; label from the status in PepcDB or PDB records.
“MGSDKIHHHHHHMQLLKELCSIHAPSGNEEPLKDFILEYIRSNAGSWSYQPVIYADNDLQDCIVLVFGNPRTAVFAHMDSIGFTVSYNNHLHPIGSPSAKEGYRLVGKDSNGDIEGVLKIVDEEWMLETDRLIDRGTEVTFKPDFREEGDFILTPYLDDRLGVWTALELAKTLEHGIIAFTCWEEHGGGSVAYLARWIYETFHVKQSLICDITWVTEGVEAGKGVAISMRDRMIPRKKYVNRIIELARQTDIPFQLEVEGAGASDGRELQLSPYPWDWCFIGAPEKDAHTPNECVHKKDIESMVGLYKYLMEKL”: the “soluble on expression in E. coli” value is on record as “not soluble”.

In the case of “MGSDKIHHHHHHMQLSSRPSSLVLDHHQNKFLTPWSDPADPHILFPIQPLEQLLVQLGWPDPQAWLIHWQKRGGISLKRPFWHPSTRTDWIWGLGLPLLTLVEGCLGKSDRSLLGITGLPGCGKTSLGCWLEAAAGELGWPIKVISLDDFYWPFPQLDRSMSGNPWRVPRALPGSHDLDLLASVLDTWQSTGHLKAPMFDKALRHGRGDRDGWHLSDPKVLVIEGWILGCLPCKFAEAGQFSDQLVPPLNKLEHDYRLVVQEALNGYVPIWDRLDTLWHLKAIDPSSTRIWKANQESLMQLNRGVCLDQESFEGFVRMILASIPLTCLDGIEADVVATLTPARQLMWVGQRGYQDSSSSDSCIG”, the “soluble on expression in E. coli” value is “not soluble”.

Turning to “MGSDKIHHHHHHMQMDLETAVMKKKESLNETDKAIVSYLLKYPEDASKLSLMELAQKLYVSKSAIFRLSKKLGLSGFSELKFELTELTNKKVQNKKYVQELDFNNNLHQIIDETFKYFKDANFHDLFIDLDNAETIYIYSTGWQQQIIAEYLAHSFFLIGKKAIILPSAKDEVAMLGRSIEENDMLFVISFGGFNKTIIEELKKIDTVTDKLKFVSLTSWQPGKIASLSDYSFFFKTTPFQISNQNAVTFSSAYVLIDLIINEYGKHCNSKK”, the “soluble on expression in E. coli” value is “not soluble”.

“MGSDKIHHHHHHMQRIAENYDALPRQLKNVATYIEQHRSSVMVDRTSDIAASCGVHPSAVVRFAQRFGFSGFSDLQAVFRQAYTGQGSSSPSYQQRIRKLIDEKPGALSGGSVAREFIAASRGGLEELEAGLDDKQFDAAVKMLQQADNIYVIGVRRSFPVASYIVYALQHTPKRVHLVSGFGGMYREQIRSVKKGDVVIAISFAPYGKETQYCLRVAHHHQARTLVITDSQLSPLARYATTQLYVKEGSAFAFRSLTSTICLCQALFIALAYKLELNVEESKDTGGYDD”: the “soluble on expression in E. coli” value was “not soluble”.

As to “MGSDKIHHHHHHMQYNFKVEAFEGPLDLLLHLIHRYEIDIYNIPVAEITEQYLSYVHTMKELQLDVASEYLVMAATLLQIKSKMLLPKHEEDVLDNGDDFIDDPRQELMERLIEYKKYKQVATELKEREQERAQLYTRPPIDFTSLQQEEETSLPLDVTLYDMLAAFQKLMRRKKAKKPVTTRITRQEIPIEQRMTDILKQLEIQGGRQSFYDLFVDDEREIMVVTFLAVLELMKNQQIVIEQEHNFDEIFVSSYTKSA”, the “soluble on expression in E. coli” value was “not soluble”.

“MGSDKIHHHHHHMRADLTPFLNDRLDWNLLRTYLVIMQERSVSRAAARLHVTQPAVSQALRRLEDTLERKLIERRGAHFAPTPAGEAVYRIASDIYGGVSRLETELDDSTADLTGSIRLLTVSRIESPVYDAFLADFHRAYPRIDLQIEVMRSSDILSSLLQKTATAGLGLCRTPHDKLEMRCFLRQRYAIYCGRHHRLFGQTQLRMEDLLAENFVSFTSDQIGDSLSPLTVFRDQKGFTGRIVASSPSLEEVRRLIFAGYGIGCLPEHIVRDDIAQQRLWRLPPDDGLVDVDVFLLWHRDRKMNAAEHAFLDAMERCMQQHSLAERLGM”: the “soluble on expression in E. coli” value was “not soluble”.

As for “MGSDKIHHHHHHMRAHVTKKTLSEGLGLLERVIPSRSSNPLLTALKVEASEAGLTLSGTNLEIDLSYFVPAEVQAPQSFVIPAHLFAQIVRNLGGELVELELTGGELSVRAGGSDFKLQTGDLEAYPPLSFPTHTDVSLDAAELARALGSVRYAASNEAFQAVFRGIKLEHRPASARVVASDGYRVAIRDFPASGDGRNLIVPARSADELIRVLKDGEARFTYGEGLLSVTTDRVRMNLKLLDGEFPDYERVIPKDVKLQVTLPATALKEAVGRVAVLADKNANNRVEFLVSEGKLRLAAEGDYGRAQDTLDVVQGGAEPAMSLAFNARHVLDALGPIEGDAELLFSGSTSPAIFRASGGGDYMAVMVTLRV”, the “soluble on expression in E. coli” value is reported as “not soluble”.

In the case of “MGSDKIHHHHHHMRASVSPDIFPPRGHEAKRLSIVDAAAGVFCREGFAGANIDLIAAEAGVSRQTVYNHHGDKEKLFMAVVRDLTDRCNVGIFATIATFPDQPGDLEADLIGFAVRLNQNCICNRDGKFLRKLIQTEGERYPELFAEWREQGPGTTLPAIAARFARLAYGGYLTIDDPDVAARQFFGLVNAELQTTFMLGGTPREDEVVRSATNGVRTFLRAFGKRPAPGSVKKHIALANA”, the “soluble on expression in E. coli” value was “not soluble”.

Consider “MGSDKIHHHHHHMRDLLNDLSEGLSHPDPILRAQIQMQKPLPKRFYKDVTVADVEEGGFTILLDGKPLRTPAKKPLVAPSRALADLLRDEWDAQKEVVNPVVMPVSRHVNTAIDGIASDTQAVFEDILRFSSSDLLCYRAGDPEALVARQTDYWDPVLDWATNVLGARFILVEGVMHRDQPREAIAAFAVTLKKYDTPIALAALHTMTSLTGSAILALALAEGELTLEEAWALAHLDEDWTAEQWGEDEEALERRAVRLIDMRAALNVLESLKSAS”, for which the “soluble on expression in E. coli” value is given as “not soluble”.

For “MGSDKIHHHHHHMREISMDWNDLRFFLEVARTSSLTKTAIKLKVSQSTVSRRIGALESSLKTRLFLHHQTGYFLTDVGKEVLKYAEDVEGKVGTLEKKISGRDLAPAGIVRLATAVTLANHLIIPQLPRFMACYPEIILELVTGVNTVSVVRNDADIALRLVRPEQNSLKIRKVGVVASAVYGSETYVREHPAPEDNPIIGRSFITWDKSFSHLPSARWLNEHFPDMTSTLALTSLVTQIAAANAGLGLAVLPCFIAAQNSDLVEVIHTQRVFSEDLWLVSHTDLIASSRIRVVADFLMEIIAEAHLA”, the “soluble on expression in E. coli” value is on record as “not soluble”.

On to “MGSDKIHHHHHHMREVFQRLKQAILEKQDTMLLTIGTSSGSTPRSQGARMLVSAEGRIAGTVGGGAVEFQAEQVAKKLVLEKENAQRQFILAPNNIADLGMVCGGNVTIFFHYLSWETPFLKELCESIETHFQNNQQGWLVTELDQNNLGKVSFYSETGELIGSTSWEGELSLLPKGIHCEQKEDIIFLTEAILQVGKVYIFGSGHVARALVPILNYLSFYCVVVDDRPEFLTAQAFPQAEELRVIPLENLAAFIEITADDYGIVITRGHNFDFIVAKQLLETPAKYIGVMGSKHKIASQVRRLKEVGYTMTEIERIFMPIGLDIAAETPEELAISIAGELIQQRYQ”, for which the “soluble on expression in E. coli” value was “not soluble”.

Consider “MGSDKIHHHHHHMRFIAGPLNKQLLQNLLGEVIESCTRVRAAVAYASRDNMKLFEACAQHLKPLEFFGRYDHTVAVDPAVLKWFLDKASPNYDCKLVPDILHAKIIWWVDAGAYIGSANLSDRAWISNIEAGTFLPHDELVETGMERELQRFFEEVDDRARPLTKEIYQEQLRLADRRSELSKREYGLEQQFDKDRLLPKNHGLVFVDTKRSSEKRFQKFEQDWNDTLQVMRSIASRVAAPGAKPAWIDASVAPGVQADQFLHAYYYKQVKDGNRHPYEEFFDRNSKNPELALRDALEWWHDADFDHSFEERTIYEWSPRLRELLARDRILKLTEQEFVDAVSRVHAIRDHAIKQENEHLGLPDRPQAGDDKVEKFGEWLWRQRSREGRTVLELLNYVVWGNGSVSARLWNAIRSDDWAIPHIGLSSLGEIVGWARPDEYPPRNMRTSKGLRALGYNVRIGV”, for which the “soluble on expression in E. coli” value is given as “not soluble”.

As to “MGSDKIHHHHHHMRGRGMDIFISKKMRNFILLAQTNNIARAAEKIHMTASPFGKSIAALEEQIGYTLFTRKDNNISLNKAGQELYQKLFPVYQRLSAIDNEIHNSGRRSREIVIGIDNTYPTIIFDQLISLGDKYEGVTAQPVEFSENGVIDNLFDRQLDFIISPQHVSARVQELENLTISELPPLRLGFLVSRRYEERQEQELLQELPWLQMRFQNRANFEAMIDANMRPCGINPTIIYRPYSFMAKISAVERGHFLTVIPHFAWRLVNPATLKYFDAPHRPMYMQEYLYSIRNHRYTATMLQHIAEDRDGTSH”, the “soluble on expression in E. coli” value is reported as “not soluble”.

For “MGSDKIHHHHHHMRHAYRQFGPGTLYTVRLLRALDYLWRHLDEPLLLDRLAEEACFSRFHFHRLYRNLMGETVMESRQRMLLHRAAGELGRADRPLASVAVRAGFSSSAAFIRAFAGRYGETPGRYRQRRLMFLNQRERTMRQVEIVERDAVKVLMRHHRGPYMEIGKAFDALRAVQGPQQGVGAPSRSFGLYLDDQAQTPAADCRSIACATVPAFMEGKAMDGFEWGSIPAGRYAAVLHTGPYSELGECWDWLYRHWLPASGEMPGDTPCVEEYLNAPYDTPPAELKTLLLLSLA”, the “soluble on expression in E. coli” value was “not soluble”.

As to “MGSDKIHHHHHHMRIAIDPFMHRHLSLEELPRKVRELGYDWIEMSPRADFLEWFKAPRVFPQRMKEFKKALAAENVKIASLLPMYRWASNDETERKAAVKHWKRAIEIAVEMEIDTMNSEFGRGPHPDKGSCYCCHTGSMIEACEDAWWRSMEELVPVFERENIQLNIEPHPEDWCETLQPALDIIRTVNSKNVKFLYCAPHTFYFGDDTKAMLREAKDVLAHVHVGDTFNHKASSGLRYILNPPGTQARVHQHLNIGQGEVPWDDFFGTLAEIGFDGTMTACVFAWEDRADHSGKFMLSEMNRYIEKYWPK”, the “soluble on expression in E. coli” value is given as “not soluble”.

As to “MGSDKIHHHHHHMRIEITPISESALVCRLNAPSELGKQQKLWAFAAALGQHDRIEEVVVGMNNLTVFTRFDTDLATLADELQYVWEHTAVTDHQGKLVEIPVCYGGEYGPDLAEVAAFHQTVISEIVRRHTAQTYTVFMMGFQPGFPYLGGLPEALHTPRRAVPRTSVPAGSVGIGGSQTGVYPFASPGGWQIIGRTELPLFRADLNPPTLLAAGDQVRFVAERIEP”, the “soluble on expression in E. coli” value is “not soluble”.

Consider “MGSDKIHHHHHHMRILLVGHYPPHKGGVARHVKQLKECLEKRHEVYVLTYGTVAVEEENVYSVKVPNIFGIRGTSFALLASKKIVKLHEKYNFDLVHAHYVGTTSFAGVLAKRKTGVPLVITAHGSDLEFMSRLPLGGYFVKTSIMEADYVIAVSHYLAKKALELGASRISVIPNWTELSGESERKYILFLGRVASYKGIEDFIELAKRFPGEEFVVAGEGPLLKKLRAKSPPNVKFLGYVPAEDVLKKAKVLVLPSKREGFGLVVIEANSFKVPVLGRNVGGIRELIRFSKNGYLFEDIEDAITYLKTLLVPKTNVKLGSIGKRISKGHSQEKMCERVEEIYREVIS”, for which the “soluble on expression in E. coli” value is “not soluble”.

For the sequence “MGSDKIHHHHHHMRIQFGYVAMSMELANASPSKTMTATQFEKIEDHEAGLRKLERIAKTNLHNCLRLLKHNLAYQISFFRLSSKLVPLVNHPLTEGWKYELAIAEELQAVGEFASEHQMRIDFHPDHFVVLNSEAKEITRRSLQTLLYHYKLLKGMEIDPRHRCVLHVGGKKKGVEAGLEQFIENTASIPKSLLSMIMLENDDKSYTIDDVLYLGEKLAIPVVLDIHHHDVLHRSKSLQETWQRIVATWEDSPLPVKIHLSSPLSGEDDPRHHDYINADRFIAFLHEIGADAVDHLHVMIEAKKKDLALFQLMKDLAEYDEITVVSKSAVEFNP”, the “soluble on expression in E. coli” value is “not soluble”.

For “MGSDKIHHHHHHMRKIPPLRALQVFEAAARLQHFSRAAQELCITQSAVSHQVRLLEEHFALPLFRREGRSLRLTDKGEQLFQETARIFNELGELNLRLLGEKPEALRLAVYSSFAVKWLIPRLSGFRRLHPGIQVRLDMITEDPVLSHSSADMFITGQQDQKGYWQQLLHAERLIPVCSPELISSSDKLDLDWLSTQQLLTVDEGPLGLDWQRWFEHHRVAQPEEEQQQLFSHVLMAIEAAIAGQGVALASDFMVLDDIAKQRLVALPFAGIDTGFEFNFLCKQRRLQEPAIAAFVHWLTQQH”, the “soluble on expression in E. coli” value is “not soluble”.

Source of the values: the DeepSol protein solubility set.
